Experimental data as given in the DeepSol protein solubility set.

Assay: soluble on expression in E. coli; label from the status in PepcDB or PDB records

Sequence	soluble on expression in E. coli
MSNKFHCDVCSADCTNRVRVSCAICPEYDLCVPCFSQGSYTGKHRPYHDYRIIETNSYPILCPDWGADEELQLIKGAQTLGLGNWQDIADHIGSRGKEEVKEHYLKYYLESKYYPIPDITQNIHVPQDEFLEQRRHRIESFRERPLEPPRKPMASVPSCHEVQGFMPGRLEFETEFENEAEGPVKDMVFEPDDQPLDIELKFAILDIYNSRLTTRAEKKRLLFENHLMDYRKLQAIDKKRSKEAKELYNRIKPFARVMTAQDFEEFSKDILEELHCRARIQQLQEWRSNGLTTLEAGLKYERDKQARISSFEKFGASTAASLSEGNSRYRSNSAHRSNAEYSQNYSENGGRKKNMTISDIQHAPDYALLSNDEQQLCIQLKILPKPYLVLKEVMFRELLKTGGNLSKSACRELLNIDPIKANRIYDFFQSQNWM	soluble
MSNNTKRVGSQTIELKSKPRIIATYSVVGPREGQGPLKEYFDKILQDDCNGCESFEKAESSLMITAIEGVIKKGNVKEEDVDYLFSGDLLNQLTSTNFVAREFKIPFFGVYGACSTMAESLSLSSMIMDGDFAKYAIASTSSHFSSAERQFRFPLEYGCQRKEYSQWTVTGSGAMLLGKSGDYPYVTHVTTGIVKDYGIKDADNMGAAMAPAAVDTIYKHFVDTGRKPEDYDVIATGDLGAVGKKLTEELLKEYGYDISKVYIDCGEKIFDNEKQGTFAGGSGCGCSAVVACGYLYRMLKEKKLKRVLLVSTGALLSSTSALQGESIPGIAHAVAIEYILEHHHHHH	soluble
MSNSSAHSSFGTSNDSFSSVQSVILPPVGPFGQKKRTFEYIGVTLVVDKLKLAEWMNGIGKLFGSAELRDNVTNLHMQLVPVIDTLKKVSHLSSEKTKKEIMTLIEEYKTLVVVCENMLDRMEKSADFHSTDMLNDPVLEKQE	not soluble
MSNSYEGCGDLTIFVAVALNKVIGHKNQIPWPHITHDFRFLRNGTTYIPPEVLSKNPDIQNVVIFGRKTYESIPKASLPLKNRINVILSRTVKEVPGCLVYEDLSTAIRDLRANVPHNKIFILGGSFLYKEVLDNGLCDKIYLTRLNKEYPGDTYFPDIPDTFEITAISPTFSTDFVSYDFVIYERKDCKTVFPDPPFDQLLMTGTDISVPKPKYVACPGVRIRNHEEFQYLDILADVLSHGVLKPNRTGTDAYSKFGYQMRFDLSRSFPLLTTKKVALRSIIEELLWFIKGSTNGNDLLAKNVRIWELNGRRDFLDKNGFTDREEHDLGPIYGFQWRHFGAEYLDMHADYTGKGIDQLAEIINRIKTNPNDRRLIVCSWNVSDLKKMALPPCHCFFQFYVSDNKLSCMMHQRSCDLGLGVPFNIASYSILTAMVAQVCGLGLGEFVHNLADAHIYVDHVDAVTTQIARIPHPFPRLRLNPDIRNIEDFTIDDIVVEDYVSHPPIPMAMSA	soluble
MSNVISVENLGKKYLISHQGREPYTALRDVLTDGARAFYRRLFSPGTSQADAQAEEFWALKDVSFEVKQGDRIGIIGRNGAGKSTLLKILSRITEPTEGRVRIRGRVASLLEVGTGFHPELTGRENIFLNGAILGMNRAEIARKFDEIVAFAEIEKFLDTPVKRYSSGMYVRLAFAVAAHLEPEILIVDEVLAVGDAQFQNKCLGKMEDVSTKEGRTVLFVSHNMGAIDRLCTRAVLLERGRVRLADFTKPVIQMYLDKAKNAISAWSCSTSIPDFDGIFFESISIVNKDRKIAEVLPSNEPFSITLVVNATASLKGVQIAIRITNEQGIPILTTTNCDKAGKLQEISRGRYRYTVSLPASFLPPGYYTLIVASFVPGEKLFDGVEDKLGFCIDDMGSLATLMKDGRLGVVTPLMPWDEVRLLEHHHHHH	soluble
MSNVKHSKLLILGSGPAGYTAAVYAARANLKPVLVTGMQQGGQLTTTTEVENWPGDAEGLTGPALMERMKEHAERFDTEIVFDHINSVDLSSRPFRLTGDSQEYTCDALIISTGASAKYLGLESEEAFKGRGVSACATCDGFFYRNQKVAVVGGGNTAVEEALYLSNIASEVHLVHRRDSFRSEKILIDRLMDKVANGNIVLHTHRTLDEVLGDEMGVTGVRLKDTQSDMTENLDVMGVFIAIGHQPNSQIFEGQLEMKNGYIVVKSGLEGNATQTSIEGVFAAGDVMDHNYRQAITSAGTGCMAALDAERYLDSQGK	soluble
MSNYSVSLVGPAPWGFRLQGGKDFNMPLTISSLKDGGKAAQANVRIGDVVLSIDGINAQGMTHLEAQNKIKGCTGSLNMTLQRASAAPKPEPVPVQKGEPKEVVKPVPITSPAVSKVTSTNNMAYNKAPRPFGSVSSPKVTSIPSPSSAFTPAHATTSSHASPSPVAAVTPPLFAASGLHANANLSADQSPSALSAGKTAVNVPRQPTVTSVCSETSQELAEGQRRGSQGDSKQQNGPPRKHIVERYTEFYHVPTHSDASKKRLIEDTEDWRPRTGTTQSRSFRILAQITGTEHLKESEADNTKKANNSQEPSPQLASSVASTRSMPESLDSPTSGRPGVTSLTTAAAFKPVGSTGVIKSPSWQRPNQGVPSTGRISNSAAYSGSVAPANSALGQTQPSDQDTLVQRAEHIPAGKRTPMCAHCNQVIRGPFLVALGKSWHPEEFNCAHCKNTMAYIGFVEEKGALYCELCYEKFFAPECGRCQRKILGEVINALKQTWHVSCFVCVACGKPIRNNVFHLEDGEPYCETDYYALFGTICHGCEFPIEAGDMFLEALGYTWHDTCFVCSVCCESLEGQTFFSKKDKPLCKKHAHSVNF	soluble
MSPAQSKPVESMTVFNTEEVDTKKQPMFFGKPLGVQRYDSYKYPVFDKLTQQQLGYFWRPEEVSLQKDRGDYQQLTPEQKHIFTSNLKYQIMLDSVQGRAPGMAFAPYCSLPELEGCINVWQFMEMIHSRSYTYIIKNVYSDPSEVFDTIIKDTNILQRAESVTKSYDDFVNDAHEYDSGNAWKFAREGHPAGTLDRRELKRKLYRAIANVNILEGIRFYVSFACSFAFGENKLMEGSAKILSLISRDESQHLVITQQILKKWADGDDPEMQEIAKEEKSFVKDMFRNTVNEEKAWADYLFKEGSMIGLNARLLNNYVEWIANRRMKAIGLDPIYDQPLRNNPLPWTEHWLNSKGQQNAPQETEIESYVIGGIKQDVKGDSFAGFKL	not soluble
MSPEYAMEGIFSVKSDVFSFGVLVLEIVSGKRNRGFHNSGQDNNLLGYTWENWKEGKGLEIVDSIIVDSSSSMSLFQPHEVLRCIQIGLLCVQERAEDRPKMSSVIVPFCTR	not soluble
MSPGSSTGMVSEKCGDAESKRAPYPPPLRLARRVCYPQYTQKSLDMRAQEKLVGRKRDMKMARFLAKQAKESKEMVKKAAKETTEKTTKNDSTV	not soluble
MSPIEKSSKLENVCYDIRGPVLKEAKRLEEEGNKVLKLNIGNPAPFGFDAPDEILVDVIRNLPTAQGYCDSKGLYSARKAIMQHYQARGMRDVTVEDIYIGNGVSELIVQAMQALLNSGDEMLVPAPDYPLWTAAVSLSSGKAVHYLCDESSDWFPDLDDIRAKITPRTRGIVIINPNNPTGAVYSKELLMEIVEIARQHNLIIFADEIYDKILYDDAEHHSIAPLAPDLLTITFNGLSKTYRVAGFRQGWMVLNGPKKHAKGYIEGLEMLASMRLCANVPAQHAIQTALGGYQSISEFITPGGRLYEQRNRAWELINDIPGVSCVKPRGALYMFPKIDAKRFNIHDDQKMVLDFLLQEKVLLVQGTAFNWPWPDHFRIVTLPRVDDIELSLSKFARFLSGYHQL	soluble
MSPTGNYLNAITNRRTIYNLKPELPQGVGLDDVKRTVHVILKNTPTAFNSQVNRAVIIVGDTHKRIWDAVASAMPTAEAKKRPESCRDEAYGSVIFFTDEGPTEKLQRDFPALAAAFPTCAAHTTGAVQIQSWTALELLGLGANLQHYNDYVKSALPQDVPIAWTVQSQLVFGVPTALPEEKTFINNVINVYH	soluble
MSPWQHYQKDLTRDGFSHDPAQEIAVKALQRVYEDLTAAEEPNSLFGKLFTSFGLTSAPAPTKGLYLWGGVGRGKTYLMDTFFDTLPGNQKLRAHFHRFMHQLHLDLDALKGTRDPLLVIAKQMAAKYRVICFDEFFVSDITDAMLLGTLFQALFKEGVVLVATSNIIPDDLYKNGLQRARFLPAIALINQHCEVLNVDSGIDYRLRTLEQAEIYHHPLDEQADTNLLRYFGQLAPEAEISTEAIEIEGRAISIRQQAQGVLLADFRALCDGPRSQRDYMELARIYHTVLVSGIEQMGAFLTGDDIARRFLAMVDEFYERNVKLIVSAQVPLEDIYADGLLSFEFRRCRSRLIEMQSHDYLKSEHLPLEHHHHHH	not soluble
MSQATARHSVTSSPVSTGQLEEPISRLRVPTEDELPQKLRDIHMRIRKKFGFVPNFLTALSANPGTALRIMAFYEHLFDQSNSHLSASERELIAVVTSVATGCSYCVFNHRPALAAALGDRVLADRIARNHNDVTLAPRERALADLAQKLAATPHSVGSDDFARLRAIGFSEPAILEVLEVSAFFSYGNRLTIALNVLPDPQFFVSAMAGDPLEHHHHHH	not soluble
MSQPPLLSGPGGRLLGAALLIGLLAGCGSVSTGNAGSGTVGTSTTSRADVMTFQPSSLPVSYVGETYNVQVGVTGGVGPYGYRLTAGTLPPGLKFAGGALSGTPTKAGSYSFAIQATDANLSTRVQEYTMNVDALPPLALKPTLPPGEIRGETRIPVTIQAPRAVRAARLSWDLGKDVQVTRVQPADAGSVVFWQQRGSVLTVDLGFRTVPRPDARIALITVKPAKAVTLKADALGYEARDGSGKMLVDKKRPGSEPVKPAEQPGDPKVDPKAADQKATDQKATDPKTVDPKTVTPADTVEGGPLPSPALPTPSLPPTLPPVTTPPANTPPVPTPTPPANQPAPAPAPQPAPAPQPTPPSGTGGALEHHHHHH	soluble
MSQRKAQNDYQKIIRSLSDRIVEAQTPIRVLDAIKWDDGIRQDFLKGRGKHAPKVDRGYYDSRPLAFDASAKKQEFQNIERDITRQLGQFNPVGQIMRRMCKEYRMVIRMLEARGTPDLGLISQELYGSASDAFHAGDPTLADLGLMLSDYLNNIADRGDLKDEPKTLTAKEVVPILQARLNTVFGEEEGTIRVFESDGIVADAAAGADYIKVRADALFNERDVRALEVHEGLVHVGTTLNGLSQPICTFLAKGPPSSTVTQEGLAILMEVIAFASYPTRLRKLTNRTRAIHMAEEGADFLDVFHFYREQGYSLEDSYQNASRVFRGSTPDGLPFTKDLSYLKGFILIYNYIQLAVRKGKLEQIPLLFCGKTTLEDMRTLRQLVDEGLVAPPKYLPPQFRDLNALSAWMCFSNFLNHLSLDRIEADYANILAAALEHHHHHH	not soluble
MSQTTTNPHVAVLAFPFSTHAAPLLAVVRRLAAAAPHAVFSFFSTSQSNASIFHDSMHTMQCNIKSYDISDGVPEGYVFAGRPQEDIELFTRAAPESFRQGMVMAVAETGRPVSCLVADAFIWFAADMAAEMGVAWLPFWTAGPNSLSTHVYIDEIREKIGVSGIQGREDELLNFIPGMSKVRFRDLQEGIVFGNLNSLFSRMLHRMGQVLPKATAVFINSFEELDDSLTNDLKSKLKTYLNIGPFNLITPPPVVPNTTGCLQWLKERKPTSVVYISFGTVTTPPPAEVVALSEALEASRVPFIWSLRDKARVHLPEGFLEKTRGYGMVVPWAPQAEVLAHEAVGAFVTHCGWNSLWESVAGGVPLICRPFFGDQRLNGRMVEDVLEIGVRIEGGVFTKSGLMSCFDQILSQEKGKKLRENLRALRETADRAVGPKGSSTENFITLVDLVSKPKDV	soluble
MSQVLTTYETPVLPEWVDYNGHLRDAFYLLVFSYATDALMAHIGLDSQNRDASGHSLFTLECHLNFLHEVKEGARVEVRTQLLGHDRKRLHIHHALYLPGSGQALALSEQMLLHVSLDGPRSAPFEGEVLARVEALAEAHRALPVPEGVGRVIGLPPVR	not soluble
MSQVMEVVGGKWRLNVLWVINKYQSIRFNQLKREVNGITTIMLTRSLDILITNELVEKVDFQTLPLHVKYQLSSKGKSLMPLLKQINQWGKLYLLEHHHHHH	not soluble
